{"source": "patent US20120058499", "proteins": {"B1": {"name": "DEN1 (NEDD8-specific protease 1) (protein)", "chain": "MDPVVLSYMDSLLRQSDVSLLDPPSWLNDHIIGFAFEYFANSQFHDCSDHVSFISPEVTQFIKCTSNPAEIAMFLEPLDLPNKRVVFLAINDNSNQAAGGTHWSLLVYLQDKNSFFHYDSHSRSNSVHAKQVAEKLEAFLGRKGDKLAFVEEKAPAQQNSYDCGMYVICNTEALCQNFFRQQTESLLQLLTPAYITKKRGEWKDLITTLAKK"}}, "biological_target": "NEDD8-amino-luciferin, Q15843", "sequence (Q15843 whole entry, looked up)": "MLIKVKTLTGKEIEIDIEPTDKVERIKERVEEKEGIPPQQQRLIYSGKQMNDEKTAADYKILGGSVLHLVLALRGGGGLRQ"}
{"protein": "B1", "values": [{"measurement": "luminescence (RLUs), 250 nM substrate", "value": "A significant increase in signal was observed with the NEDD8-amino-luciferin substrate at a Den1 concentration at least 3-orders of magnitude lower than required for the Z-RLRGG (SEQ ID NO: 1)-amino-luciferin substrate"}]}
